Experimental data as given in patent US20240254227A1 (Alector, published 2024).

T1: murine CD300C-Fc (mouse)
T1 construct: mouse IgG2a-Fc fusion (R&D Systems); the entry is the whole fusion chain; also called mCD300C; Mouse CD300C-Fc
T1 chain: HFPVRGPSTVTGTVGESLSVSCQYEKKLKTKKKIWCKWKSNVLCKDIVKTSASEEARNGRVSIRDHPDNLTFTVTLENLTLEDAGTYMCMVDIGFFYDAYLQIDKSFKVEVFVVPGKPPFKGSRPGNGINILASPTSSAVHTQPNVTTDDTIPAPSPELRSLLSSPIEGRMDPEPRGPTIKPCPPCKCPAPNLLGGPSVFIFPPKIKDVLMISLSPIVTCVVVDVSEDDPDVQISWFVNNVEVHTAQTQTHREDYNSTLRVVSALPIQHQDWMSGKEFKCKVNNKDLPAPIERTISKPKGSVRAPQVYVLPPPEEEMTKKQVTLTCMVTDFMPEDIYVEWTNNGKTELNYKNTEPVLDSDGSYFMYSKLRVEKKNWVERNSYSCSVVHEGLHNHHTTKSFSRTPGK

T2: human CD300LB transiently expressed on HEK293 cells (human, UniProt A8K4G0 18-201)
T2 construct: CD300LB expression constructs'; also called huCD300LB HEK293
T2 sequence: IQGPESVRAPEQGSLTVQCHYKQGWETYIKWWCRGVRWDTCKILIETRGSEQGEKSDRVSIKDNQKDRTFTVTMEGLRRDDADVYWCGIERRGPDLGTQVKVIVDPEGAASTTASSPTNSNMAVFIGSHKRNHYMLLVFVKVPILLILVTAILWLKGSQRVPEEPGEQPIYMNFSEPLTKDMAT


Tests used:
murine CD300A-Fc = target: T3, murine CD300A-Fc (mouse); assay: SPR (Carterra LSA), antibody immobilised, Fc fusion at 300 or 600 nM
T3 construct: hIgG1-Fc fusion; the entry is the whole fusion chain; also called mCD300A; Mouse CD300A-Fc
Method: (§1) Binding of mouse anti-CD300LB IgG1 antibodies of the present disclosure to human and murine CD300 orthologs were evaluated by surface plasmon resonance (SPR) using a Carterra LSA instrument (Carterra, Salt Lake City, UT). […] A HC200M sensor chip (Carterra) was activated using the single channel flow cell with a 7-minute injection of a 1:1:1 mixture of 100 mM MES pH 5.5, 100 mM sulfo-NHS, 400 mM EDC (all reconstituted in MES pH 5.5; 100 μL of each mixed in vial immediately before running assay). After switching to the multi-channel array flow cell, the antibodies were injected over the activated chip in a 96-spot array for 10 minutes. The remaining unconjugated active groups on the chip were then blocked by injecting 1M Ethanolamine pH 8.5 (Carterra) for 7 minutes using the single channel flow cell. After priming with running buffer (HBS-TE, Carterra) with 0.5 mg/ml BSA (Sigma), the immobilized anti-CD300LB antibodies were tested for their ability to bind human and mouse recombinant CD300LB extracellular domains. Human CD300 family members and mouse CD300A were hIgG1-Fc fusions, while mouse CD300LB, mouse CD300C, mouse CD300D, and mouse CD300E were mouse IgG2a-Fc fusions (R&D Systems). Binding was assessed by injecting each analyte over the entire antibody array using the single channel flow cell. CD300 analytes were diluted to 300 nM or 600 nM in running buffer and injected in series without regeneration. Two or three buffer blanks were run between each mouse or human ortholog, respectively. Data were processed and analyzed using NextGenKIT high-throughput kinetics analysis software (Carterra).
(§2) Results of anti-CD300LB antibody binding to murine CD300 family members is provided below in Table 8.

murine CD300C-Fc = target: T1, murine CD300C-Fc; assay: as above
Method: as §1, §2

[1] = target: T2, human CD300LB transiently expressed on …; assay: flow cytometry, transfected HEK293, 10 ug/mL, isotype subtracted
Method: In addition, supernatants or purified antibodies were tested for species crossreactivity by comparing the binding of human, mouse, and cynomolgous monkey CD300LB expressing cell lines. HEK293 were transfected with […] of human, mouse, and cyno CD300LB expression constructs using the Mirus system in 10 cm tissue culture dishes. Cells were then incubated for 24 hours in complete medium. Cells were harvested by incubation in TrypLE Express, then washed with PBS and labeled with 200 nM CFSE, 500 nM VioBlue, or a combination of the two to discriminate between human, mouse, and cyno CD300LB expressing cells. Cells were washed thoroughly with PBS containing 2% fetal bovine serum then resuspended at a total of 240,000 cells per well. Purified antibodies at 10 μg/mL were added and incubated for one hour before the cells were washed again and stained with an APC-labeled anti-human or anti-mouse secondary. Cells were then analyzed using a BD FACSCanto II. Antibodies were analyzed for specific binding to human, mouse, or cyno CD300LB by FlowJo software by gating on live cells, then the APC gMFI calculated for each labeled population minus the gMFI of the isotype control.

T3 sequence (chain, as listed by the source limits assumed): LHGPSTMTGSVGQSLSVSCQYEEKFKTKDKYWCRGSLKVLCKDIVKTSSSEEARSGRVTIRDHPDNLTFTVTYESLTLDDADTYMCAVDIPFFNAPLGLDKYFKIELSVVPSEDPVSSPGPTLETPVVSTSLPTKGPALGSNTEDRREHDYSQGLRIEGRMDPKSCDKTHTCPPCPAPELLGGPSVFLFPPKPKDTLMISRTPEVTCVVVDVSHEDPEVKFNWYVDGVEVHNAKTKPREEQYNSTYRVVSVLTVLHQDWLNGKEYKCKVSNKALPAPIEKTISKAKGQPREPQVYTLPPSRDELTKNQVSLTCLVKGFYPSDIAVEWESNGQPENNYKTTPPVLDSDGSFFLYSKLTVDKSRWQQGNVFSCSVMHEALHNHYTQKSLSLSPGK

| SPR binding (control subtracted) (murine CD300A-Fc) | SPR binding (control subtracted) (murine CD300C-Fc) | gMFI [1] | Binder |
| --- | --- | --- | --- |
| -2.1 |  |  | anti-CD300LB antibody CD-11 (antibody, V domains shown) VH: QIQLVQSGPEVKKPGETVKISCKASGYTLTDYSMHWVMQTPGTGLKWMAWMNTETGEPTYADDFKGRFAFSLETSAGTAYLQIDNLKNEDTATYFCATYGKSYGMKYWGQGTSVTVSS VL: DIVLTQSPPSLAVSLGQRATISCRATKSVSPYLHWYQQTPGQPPKLLIYLASNLDSGVPARFSGSGSGTDFTLNIHPVEEEDAATYYCQHNKELPPTFGGGTRLEIK |
| 4.2 | 2.5 |  | anti-CD300LB antibody CD-12 (antibody, V domains shown) VH: QIQLVQSGPELKKPGETVKISCKASGYTFTDYSMHWVRQAPGKGLKWMAWINTETGEATHADDFKGRFDFSLDTSASTAYLQIKNLKNEDTGIYFCVCYGSSYGMDYWGQGTSVTVSS VL: DIVLTQSPASLPVSLGQRATISCRASKSVRTSGASYMHWYQQKPGQPPKLLIYLASNLKSGVPTRFSGSGSGTDFTLNIHPVEEEDAATYYCQHNREVPPTFGGGTKLEIK |
| -1.9 | 34.5 |  | anti-CD300LB antibody CD-16 (antibody, V domains shown) VH: QIQLVQSGPELKKPGETVKISCKASGYTFTDYSMHWVKQAPGKGLKWMAWINTETGEPTYADDFRGRFAFSLETSGRTAYLEINNLRNEDTATYFCVTYGSSYGMAYWGQGTSVTVSS VL: DIVLTQSPASLAVSLGQRATISCRASKSVSRSGYSYLHWYQQKPGQPPKLLIYLASKLESGVPARFSGSGSGTDFTLNIHPVEAEDAATYYCQHNREIPPTFGGGTKLEIK |
| 7.1 | 13.3 |  | anti-CD300LB antibody CD-15 (antibody, V domains shown) VH: QIQLVQSGPELKKPGETVKISCQVSGYTFTDYSMHWLKQAPGKGLKWMAWINTETGESTYTDEFKGRFVFSLETSVRTAYLKINNLKNEDTATYFCGTYGSSYGMAYWGQGTSVTVSS VL: DIVLTQSPASLPVSLGQRATISCRASKSVSTSGSSYLHWYQQKPGQPPKLLIYLASKLESGVPARFRGSGSGTDFTLNIHPVEEEDAATYYCQHNREVPPTFGGGTKLEIK |
| 4.4 | 43.6 |  | anti-CD300LB antibody CD-13 (antibody, V domains shown) VH: QIQLVQSGPELKKPGETVKISCKASGYTFTDYSMHWVKQAPGKGFKWMAWINTETGAPTHADDFRGRFAFSLETSASTAFLQISNLKTEDTATYFCVTFGKSYGMNYWGQGTSVTVSS VL: DIVLTQSPASLSVSLGQRATISCRASKSVGSSGSSYLHWYQQKPGQPPKLLIYLASNLESGVPARFSGSGSGTEFTLNIHPVEEEDAATYYCQHNAEVPPTFGGGTKLEIK |
| 2.9 | 1.5 |  | anti-CD300LB antibody CD-17 (antibody, V domains shown) VH: QIQLVQSGPELKKPGETVKISCKASGYTLTDYSMHWVKQAPGKGLKWMGWINTETGEPRYGDDFKGRFAFSLETSASSAYLQINNLKNDDTATYFCATYGRSYGMDFWGQGTSVTVSS VL: DIVLTQSPASLAVSLGQRATISCRASKSVSPSGHSYMHWYQQKPGQPPKLLIYLASNLKSGVPARFSGSGSGTDFTLNIHPVEEGDAATYYCQHNRELPPTFGGGSKLEIK |
|  |  | 38.7 gMFI | anti-CD300LB antibody CD-03 (antibody, V domains shown) VH: EVQLQQSGPELVKPGASVKISCKASGYTFTDYYINWVRQSHGKSLECIGDINPNNGGTNYNQKFKGKATLTVDRSSNTAYMEFRSLTFDDSALYYCAAEGAYWGQGTLVTVSA VL: not shown |
| -2.5 |  |  | anti-CD300LB antibody CD-10 (antibody, V domains shown) VH: QVQLQQSGPELVRPGVSVKISCKGSGYTFTDYAMHWVKQSHVRSREWIGVIGTYNGHTNYNQKFKGKATMTVDKSSSTAYLELARLTSEDSAIYYCARSGSYYYSMDYWGQGTSVTVSS VL: QIVLTQSPAIMSASPGEKVTMTCSASSSVNYMHWYQQKSGTSPKRWIYDTSKLSSGVPARFSGSGSGTSYSLTISTMEAEDAATYYCQQWSSNPPMTFGGGTKLEIK |
| 2.9 | 1.5 |  | anti-CD300LB antibody CD-18 (antibody, V domains shown) VH: DVQLQESGPDLVKPSQSLSLTCTVTGYSITSGYSWHWIRQFPDNKLEWMGYILSRGDTNFNPSLKSRISITRSTSNNQFFLHFNSVTTEDTATYYCARDFFDYWGQGTTLTVSS VL: DVLMTQTPLSLPVSLGDQASISCRSSQSIVHSNGNTYLEWYLQKPGQSPKLLIYKVSDRFSGVPDRFSGSGSGTDFTLKISRVEAEDLGVYFCFQGSHVPYTFGGGTKLEIK |
|  |  | 578 gMFI | anti-CD300LB antibody CD-02 (antibody, V domains shown) VH: QVQLQQPGAELVRPGSSVKLSCQASGYTFTNYWMHWVRQRPIQGLEWIGNIDPSDSETHYNQKFKDRATLTVDKSSSTAYMQLSSLTSEDSAVYYCARSGVYDDEGGDYWGQGTTLTVSS VL: ENVLTQSPAIMSASPGEKVTMTCSASSSVSYIHWYQQKSSTSPKLWIYDTSKLASGVPGRFSGSGSGNSYSLTISSMETEDVATYYCFQGSGYPLTFGAGTKLELK |
|  |  | 166 gMFI | anti-CD300LB antibody CD-01 (antibody, V domains shown) VH: RVQLQQSGAELVRPGASVTLSCKASGFTFTDFEMHWVKKTPVHGLEWIGAIDPESGNTAYNQKFRGKATLTADKSSSTAYMELRYLTSEDSAVYYCTPLISGADYWGQGTTLTVSS VL: DVVMTQSPLSLPVSLGDQASISCRSSQSLVHSDGNTYLYWYLQKPGQSPKLLIYKVSNRFSGVPDRFSGSGSGTDFTFKISRVGAEDLGVYFCSQSTHVPWTFGGGTKLEII |
| 2.7 | 17.9 |  | anti-CD300LB antibody CD-14 (antibody, V domains shown) VH: QIQLVQSGPELKKPGETVKISCKASGYTFTDYSLHWVKQTPEKNLKWMAWINTETGAPTYADDFKGRFAFSLETSSNTAYLLINNLKNEDTATYFCALTMVNYWGQGTTLTVSS VL: DIVMTQSQKFMSTSVGDRVSVTCKASQNVGIRVAWHQQKPGQSPKTLIYSTSYRYSGVPDRFTGSGSGTEFILTISNVQSEDLAEYFCQQYNSYPYTFGGGTKLEIK |
